The values below come from patent US20240018269A1.

Assay [1] concerns the target recombinant soluble FcγRIIb (human) (UniProt P31994). The experiment in a line: BLI (Octet); anti-TNP IgG captured on TNP-BSA-biotin, rsFcγR in solution; global 1:1 Langmuir fit.
Assay [2] deals with recombinant soluble FcγRIIa-Arg131 (human) (UniProt P12318). The description is as above.
The target in assay [3] is human FcγRIIb expressed on the cell surface (human) (UniProt P31994). The experiment in a line: cell-based or functional assay.
Chain of human FcγRIIb expressed on the cell surface (human) (P31994 43-310): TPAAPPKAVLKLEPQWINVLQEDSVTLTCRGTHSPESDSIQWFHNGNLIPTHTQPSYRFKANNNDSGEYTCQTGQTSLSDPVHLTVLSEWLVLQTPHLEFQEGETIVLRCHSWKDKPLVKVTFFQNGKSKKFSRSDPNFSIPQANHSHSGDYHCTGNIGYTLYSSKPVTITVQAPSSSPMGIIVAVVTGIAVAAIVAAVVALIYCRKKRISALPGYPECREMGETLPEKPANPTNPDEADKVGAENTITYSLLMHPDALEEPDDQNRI

Chain of recombinant soluble FcγRIIb (human) (P31994 43-217): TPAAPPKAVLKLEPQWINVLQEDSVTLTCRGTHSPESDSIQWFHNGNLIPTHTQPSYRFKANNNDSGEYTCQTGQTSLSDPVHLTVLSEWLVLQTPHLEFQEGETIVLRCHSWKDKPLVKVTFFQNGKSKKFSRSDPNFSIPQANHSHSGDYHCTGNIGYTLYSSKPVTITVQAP
Chain of recombinant soluble FcγRIIa-Arg131 (human) (P12318 34-217 H167R): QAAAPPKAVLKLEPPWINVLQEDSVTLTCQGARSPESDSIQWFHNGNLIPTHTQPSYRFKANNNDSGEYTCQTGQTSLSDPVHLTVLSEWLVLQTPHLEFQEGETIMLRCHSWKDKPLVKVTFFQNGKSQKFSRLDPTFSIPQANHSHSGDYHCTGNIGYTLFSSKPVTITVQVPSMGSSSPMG

For the substance “chimeric anti-TNP human IgG1-SELF (antibody)”, the Ka in assay [1] worked out at 7.4e+07 M⁻¹; in assay [2], 3.49e+08 M⁻¹. “chimeric anti-TNP human IgG2-FEGG (antibody)”: the Ka in assay [1] was 400000 M⁻¹. In assay [3], “chimeric anti-TNP human IgG4-FEGG (antibody)” registered a % inhibition of basophil activation (washed blood BAT) of 42% and a % inhibition of basophil activation (whole blood BAT) of 8%.

For “chimeric anti-TNP human IgG4-LLGG (antibody)”, the % inhibition of basophil activation (whole blood BAT) in assay [3] is 13%.
